Measured values reported in article PMC11027885, “Utilizing surface plasmon resonance as a novel method for monitoring in-vitro P-glycoprotein efflux” (Frontiers in biophysics, 2024).

Tested on: CCC(=O)C(CC(C)N(C)C)(c1ccccc1)c1ccccc1
Assay: purified protein, by the assay type
Settings: other: 50 nM Pgp in liposomes; curve fit

Substance: mouse Pgp (Abcb1a, MDR3) (Mus musculus)
- Km: 28 ± 10 µM
